{"source": "patent US20050118611", "key": {"[1]": {"target": "NF-κB p65 (RelA) homodimer (UniProt Q04206)", "sequence (Q04206 whole entry)": "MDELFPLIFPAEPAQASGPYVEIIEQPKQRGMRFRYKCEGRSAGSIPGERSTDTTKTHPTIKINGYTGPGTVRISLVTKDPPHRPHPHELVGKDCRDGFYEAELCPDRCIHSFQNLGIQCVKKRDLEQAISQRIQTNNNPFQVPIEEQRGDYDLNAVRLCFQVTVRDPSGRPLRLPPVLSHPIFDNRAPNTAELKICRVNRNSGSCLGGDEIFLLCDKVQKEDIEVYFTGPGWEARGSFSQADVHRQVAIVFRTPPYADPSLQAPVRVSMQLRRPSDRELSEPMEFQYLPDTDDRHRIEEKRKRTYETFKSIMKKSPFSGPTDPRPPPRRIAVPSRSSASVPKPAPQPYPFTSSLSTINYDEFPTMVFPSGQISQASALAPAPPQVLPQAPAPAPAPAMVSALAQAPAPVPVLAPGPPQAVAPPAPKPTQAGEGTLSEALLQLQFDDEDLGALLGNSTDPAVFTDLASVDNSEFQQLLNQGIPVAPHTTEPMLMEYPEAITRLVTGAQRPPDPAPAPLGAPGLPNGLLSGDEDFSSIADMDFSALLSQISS", "settings": "1:1 stoichiometry; method not stated; cited from earlier work"}, "[2]": {"target": "NF-κB p50 homodimer (UniProt P19838)", "sequence (P19838 1-433)": "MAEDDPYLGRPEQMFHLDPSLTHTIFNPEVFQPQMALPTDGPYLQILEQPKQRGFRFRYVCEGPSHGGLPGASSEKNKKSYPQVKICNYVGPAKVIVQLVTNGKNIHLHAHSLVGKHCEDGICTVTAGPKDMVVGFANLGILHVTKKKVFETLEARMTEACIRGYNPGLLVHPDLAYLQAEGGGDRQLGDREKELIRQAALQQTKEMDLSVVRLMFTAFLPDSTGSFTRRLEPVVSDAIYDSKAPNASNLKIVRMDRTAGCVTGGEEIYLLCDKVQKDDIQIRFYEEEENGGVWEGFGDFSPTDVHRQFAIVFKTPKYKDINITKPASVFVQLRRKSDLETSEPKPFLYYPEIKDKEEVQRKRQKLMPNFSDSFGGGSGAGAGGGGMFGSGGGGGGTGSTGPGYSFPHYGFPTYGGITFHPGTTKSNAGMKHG", "settings": "SELDI also detects p50 on IgκB surface; lost on stringent washing unlike XBY-6"}}}
{"substance": "IgκB 22-mer duplex", "values": [{"measurement": "Kd", "setting": "[1]", "result": 4, "unit": "nM"}, {"measurement": "Kd", "setting": "[2]", "result": 4, "unit": "nM"}]}
